pKd: −log10 of the molar value.
Molecular target: S3–4 single-chain TCR variant (scTv) of the A6 TCR
Experiment: SPR

“Tax P6A variant presented by HLA-A2 (from UniProt P61769) (peptide-MHC)” was tested, and the pKd was 5.30.
